Legend:
Experiment in all cases: cell-based or functional assay
plasmin (human) = plasmin (human) (UniProt P00747)
delta-plasmin (human) = delta-plasmin (human) (UniProt P00747)
mini-plasmin (human) = mini-plasmin (human) (UniProt P00747)
micro-plasmin = micro-plasmin (UniProt P00747)
Sequence of micro-plasmin (P00747 562-810 limits assumed): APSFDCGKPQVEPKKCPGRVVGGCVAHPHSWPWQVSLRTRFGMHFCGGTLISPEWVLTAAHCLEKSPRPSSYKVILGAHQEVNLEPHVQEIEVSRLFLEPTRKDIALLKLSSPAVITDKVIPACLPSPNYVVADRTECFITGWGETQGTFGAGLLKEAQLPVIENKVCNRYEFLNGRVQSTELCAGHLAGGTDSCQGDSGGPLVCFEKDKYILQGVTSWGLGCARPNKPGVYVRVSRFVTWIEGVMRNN

Sequence of delta-plasmin (human) (P00747 other isoform, or with tags, fused parts or gaps mutant limits assumed): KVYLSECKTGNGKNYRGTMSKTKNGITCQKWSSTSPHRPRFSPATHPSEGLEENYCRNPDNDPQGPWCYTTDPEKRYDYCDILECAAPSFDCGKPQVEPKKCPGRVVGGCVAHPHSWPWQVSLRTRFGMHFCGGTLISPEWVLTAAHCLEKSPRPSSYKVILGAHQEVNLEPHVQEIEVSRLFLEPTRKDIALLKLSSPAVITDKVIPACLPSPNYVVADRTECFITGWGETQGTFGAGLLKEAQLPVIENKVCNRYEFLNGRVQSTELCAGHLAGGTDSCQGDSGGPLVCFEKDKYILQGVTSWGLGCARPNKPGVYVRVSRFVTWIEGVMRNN
Sequence of mini-plasmin (human) (P00747 462-580, chain 1 of 2): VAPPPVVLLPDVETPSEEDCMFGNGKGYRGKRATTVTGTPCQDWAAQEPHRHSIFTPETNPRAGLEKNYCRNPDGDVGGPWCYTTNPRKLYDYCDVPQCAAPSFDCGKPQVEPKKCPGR
Sequence of mini-plasmin (human) (P00747 581-810, chain 2 of 2): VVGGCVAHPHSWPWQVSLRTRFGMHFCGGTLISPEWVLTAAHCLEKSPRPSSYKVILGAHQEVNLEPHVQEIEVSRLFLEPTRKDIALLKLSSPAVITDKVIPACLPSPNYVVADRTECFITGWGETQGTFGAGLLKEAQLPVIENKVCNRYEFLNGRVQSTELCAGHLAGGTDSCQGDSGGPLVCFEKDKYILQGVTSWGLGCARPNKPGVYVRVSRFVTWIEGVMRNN
Sequence of plasmin (human) (P00747 20-580, chain 1 of 2): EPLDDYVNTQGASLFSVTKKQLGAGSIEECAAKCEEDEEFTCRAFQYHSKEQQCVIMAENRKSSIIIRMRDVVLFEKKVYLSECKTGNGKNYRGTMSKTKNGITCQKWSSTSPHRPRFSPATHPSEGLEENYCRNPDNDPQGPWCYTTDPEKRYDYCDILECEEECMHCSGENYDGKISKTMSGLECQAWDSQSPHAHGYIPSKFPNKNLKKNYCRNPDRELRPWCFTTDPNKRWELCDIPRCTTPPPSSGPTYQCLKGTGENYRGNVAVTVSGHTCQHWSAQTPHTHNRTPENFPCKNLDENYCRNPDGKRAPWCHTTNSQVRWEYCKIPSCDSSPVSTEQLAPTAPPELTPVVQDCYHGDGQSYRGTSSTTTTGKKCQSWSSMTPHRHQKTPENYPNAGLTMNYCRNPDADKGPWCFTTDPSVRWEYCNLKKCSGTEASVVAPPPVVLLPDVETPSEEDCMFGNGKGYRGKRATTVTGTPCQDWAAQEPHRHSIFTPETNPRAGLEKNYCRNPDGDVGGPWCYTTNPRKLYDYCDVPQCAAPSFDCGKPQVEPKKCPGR
Sequence of plasmin (human) (P00747 581-810, chain 2 of 2): as the sequence (P00747 581-810, chain 2 of 2) above

B1: α2-macroglobulin (protein, UniProt P01023 24-1474, looked up)
chain: SVSGKPQYMVLVPSLLHTETTEKGCVLLSYLNETVTVSASLESVRGNRSLFTDLEAENDVLHCVAFAVPKSSSNEEVMFLTVQVKGPTQEFKKRTTVMVKNEDSLVFVQTDKSIYKPGQTVKFRVVSMDENFHPLNELIPLVYIQDPKGNRIAQWQSFQLEGGLKQFSFPLSSEPFQGSYKVVVQKKSGGRTEHPFTVEEFVLPKFEVQVTVPKIITILEEEMNVSVCGLYTYGKPVPGHVTVSICRKYSDASDCHGEDSQAFCEKFSGQLNSHGCFYQQVKTKVFQLKRKEYEMKLHTEAQIQEEGTVVELTGRQSSEITRTITKLSFVKVDSHFRQGIPFFGQVRLVDGKGVPIPNKVIFIRGNEANYYSNATTDEHGLVQFSINTTNVMGTSLTVRVNYKDRSPCYGYQWVSEEHEEAHHTAYLVFSPSKSFVHLEPMSHELPCGHTQTVQAHYILNGGTLLGLKKLSFYYLIMAKGGIVRTGTHGLLVKQEDMKGHFSISIPVKSDIAPVARLLIYAVLPTGDVIGDSAKYDVENCLANKVDLSFSPSQSLPASHAHLRVTAAPQSVCALRAVDQSVLLMKPDAELSASSVYNLLPEKDLTGFPGPLNDQDNEDCINRHNVYINGITYTPVSSTNEKDMYSFLEDMGLKAFTNSKIRKPKMCPQLQQYEMHGPEGLRVGFYESDVMGRGHARLVHVEEPHTETVRKYFPETWIWDLVVVNSAGVAEVGVTVPDTITEWKAGAFCLSEDAGLGISSTASLRAFQPFFVELTMPYSVIRGEAFTLKATVLNYLPKCIRVSVQLEASPAFLAVPVEKEQAPHCICANGRQTVSWAVTPKSLGNVNFTVSAEALESQELCGTEVPSVPEHGRKDTVIKPLLVEPEGLEKETTFNSLLCPSGGEVSEELSLKLPPNVVEESARASVSVLGDILGSAMQNTQNLLQMPYGCGEQNMVLFAPNIYVLDYLNETQQLTPEIKSKAIGYLNTGYQRQLNYKHYDGSYSTFGERYGRNQGNTWLTAFVLKTFAQARAYIFIDEAHITQALIWLSQRQKDNGCFRSSGSLLNNAIKGGVEDEVTLSAYITIALLEIPLTVTHPVVRNALFCLESAWKTAQEGDHGSHVYTKALLAYAFALAGNQDKRKEVLKSLNEEAVKKDNSVHWERPQKPKAPVGHFYEPQAPSAEVEMTSYVLLAYLTAQPAPTSEDLTSATNIVKWITKQQNAQGGFSSTQDTVVALHALSKYGAATFTRTGKAAQVTIQSSGTFSSKFQVDNNNRLLLQQVSLPELPGEYSMKVTGEGCVYLQTSLKYNILPEKEEFPFALGVQTLPQTCDEPKAHTSFQISLSVSYTGSRSASNMAIVDVKMVSGFIPLKPTVKMLERSNHVSRTEVSSNHVLIYLDKVSNQTLSLFFTVLQDVPVRDLKPAIVKVYDYYETDEFAIAEYNAPCSKDLGNA
inhibition rate (plasmin (human)): 650000 M⁻¹ s⁻¹
inhibition rate (delta-plasmin (human)): 760000 M⁻¹ s⁻¹
inhibition rate (mini-plasmin (human)): 750000 M⁻¹ s⁻¹
inhibition rate (micro-plasmin): 780000 M⁻¹ s⁻¹

B2: α2-antiplasmin (protein, UniProt P08697 40-491, looked up)
chain: NQEQVSPLTLLKLGNQEPGGQTALKSPPGVCSRDPTPEQTHRLARAMMAFTADLFSLVAQTSTCPNLILSPLSVALALSHLALGAQNHTLQRLQQVLHAGSGPCLPHLLSRLCQDLGPGAFRLAARMYLQKGFPIKEDFLEQSEQLFGAKPVSLTGKQEDDLANINQWVKEATEGKIQEFLSGLPEDTVLLLLNAIHFQGFWRNKFDPSLTQRDSFHLDEQFTVPVEMMQARTYPLRWFLLEQPEIQVAHFPFKNNMSFVVLVPTHFEWNVSQVLANLSWDTLHPPLVWERPTKVRLPKLYLKHQMDLVATLSQLGLQELFQAPDLRGISEQSLVVSGVQHQSTLELSEVGVEAAAATSIAMSRMSLSSFSVNRPFLFFIFEDTTGLPLFVGSVRNPNPSAPRELKEQQDSPGNKDFLQSLKGFPRGDKLFGPDLKLVPPMEEDYPQFGSPK
inhibition rate (delta-plasmin (human)): 1e+07 M⁻¹ s⁻¹
inhibition rate, fold against micro-plasmin or mini-plasmin (delta-plasmin (human)): 40 fold
rate of inhibition (delta-plasmin (human)): 1.1e+07 M⁻¹ s⁻¹
inhibition rate (mini-plasmin (human)): 240000 M⁻¹ s⁻¹
inhibition rate (micro-plasmin): 180000 M⁻¹ s⁻¹
inhibition rate (second of two separate experiments) (micro-plasmin): 310000 M⁻¹ s⁻¹

— patent US20100047228A1
